Positions count from the first letter of the chain named.
T1: human CD11a (human) (UniProt P20701)
T1 sequence (looked up): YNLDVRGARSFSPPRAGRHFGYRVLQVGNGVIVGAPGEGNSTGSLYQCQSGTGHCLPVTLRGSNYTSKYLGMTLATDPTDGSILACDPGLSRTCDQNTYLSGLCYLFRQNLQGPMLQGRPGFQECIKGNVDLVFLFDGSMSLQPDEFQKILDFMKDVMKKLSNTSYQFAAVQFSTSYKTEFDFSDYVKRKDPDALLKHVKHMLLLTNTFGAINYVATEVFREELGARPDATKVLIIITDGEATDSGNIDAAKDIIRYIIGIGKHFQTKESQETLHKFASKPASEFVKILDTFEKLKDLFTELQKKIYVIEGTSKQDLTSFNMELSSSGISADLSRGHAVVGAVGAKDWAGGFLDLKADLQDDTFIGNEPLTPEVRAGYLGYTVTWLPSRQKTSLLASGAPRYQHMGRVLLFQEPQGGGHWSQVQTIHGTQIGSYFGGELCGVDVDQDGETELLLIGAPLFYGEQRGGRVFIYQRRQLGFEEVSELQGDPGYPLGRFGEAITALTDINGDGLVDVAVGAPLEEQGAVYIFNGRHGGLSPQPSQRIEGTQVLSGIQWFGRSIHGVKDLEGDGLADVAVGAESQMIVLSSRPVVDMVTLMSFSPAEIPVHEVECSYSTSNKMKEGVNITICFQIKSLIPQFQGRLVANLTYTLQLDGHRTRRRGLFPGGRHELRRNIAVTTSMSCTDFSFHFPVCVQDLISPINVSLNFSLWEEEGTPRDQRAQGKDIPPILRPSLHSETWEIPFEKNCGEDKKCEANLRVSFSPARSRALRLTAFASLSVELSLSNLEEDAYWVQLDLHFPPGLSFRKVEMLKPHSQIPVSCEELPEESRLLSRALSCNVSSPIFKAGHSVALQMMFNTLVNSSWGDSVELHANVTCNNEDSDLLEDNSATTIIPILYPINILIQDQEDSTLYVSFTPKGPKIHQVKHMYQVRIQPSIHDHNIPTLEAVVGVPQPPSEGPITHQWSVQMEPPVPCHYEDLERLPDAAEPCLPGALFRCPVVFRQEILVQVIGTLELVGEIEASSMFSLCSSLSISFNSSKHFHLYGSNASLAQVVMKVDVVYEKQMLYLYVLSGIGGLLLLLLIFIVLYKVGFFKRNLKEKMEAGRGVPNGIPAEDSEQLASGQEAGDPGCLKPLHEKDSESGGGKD

T2: rhesus CD11a (rhesus) (UniProt H9Z8N3)
T2 sequence: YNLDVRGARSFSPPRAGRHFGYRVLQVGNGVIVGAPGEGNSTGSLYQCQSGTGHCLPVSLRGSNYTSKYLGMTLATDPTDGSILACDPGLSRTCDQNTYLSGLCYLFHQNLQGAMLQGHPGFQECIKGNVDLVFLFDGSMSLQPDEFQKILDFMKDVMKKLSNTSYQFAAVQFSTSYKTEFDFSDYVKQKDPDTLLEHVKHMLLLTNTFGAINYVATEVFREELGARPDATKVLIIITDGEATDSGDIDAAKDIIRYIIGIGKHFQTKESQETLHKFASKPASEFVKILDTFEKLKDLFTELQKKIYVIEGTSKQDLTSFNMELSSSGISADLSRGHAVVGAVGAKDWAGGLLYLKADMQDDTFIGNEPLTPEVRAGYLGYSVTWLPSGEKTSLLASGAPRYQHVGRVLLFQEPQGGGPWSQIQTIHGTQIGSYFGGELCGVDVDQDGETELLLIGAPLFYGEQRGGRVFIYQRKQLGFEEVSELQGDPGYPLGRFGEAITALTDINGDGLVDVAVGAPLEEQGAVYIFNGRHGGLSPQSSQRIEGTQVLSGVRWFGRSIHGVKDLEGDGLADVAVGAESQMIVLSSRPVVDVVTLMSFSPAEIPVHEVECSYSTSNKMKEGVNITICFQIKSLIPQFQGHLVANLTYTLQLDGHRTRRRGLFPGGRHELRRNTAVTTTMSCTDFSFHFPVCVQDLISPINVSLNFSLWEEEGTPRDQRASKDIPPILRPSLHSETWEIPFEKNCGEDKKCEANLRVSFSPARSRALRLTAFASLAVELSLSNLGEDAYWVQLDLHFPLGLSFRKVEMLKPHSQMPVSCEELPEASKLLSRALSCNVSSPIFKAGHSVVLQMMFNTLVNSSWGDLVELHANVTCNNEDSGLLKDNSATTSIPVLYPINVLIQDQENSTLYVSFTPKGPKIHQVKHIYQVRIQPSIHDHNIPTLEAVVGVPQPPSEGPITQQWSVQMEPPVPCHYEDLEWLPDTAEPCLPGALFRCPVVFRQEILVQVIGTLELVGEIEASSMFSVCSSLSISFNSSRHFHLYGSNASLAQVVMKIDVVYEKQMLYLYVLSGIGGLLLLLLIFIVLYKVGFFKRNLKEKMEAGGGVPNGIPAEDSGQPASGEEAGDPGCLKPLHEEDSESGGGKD

B1: AsnL92Ala variant IgG1 (antibody, V domains shown)
VH: EVQLVESGGGLVQPGGSLRLSCAASGYSFTGHWMNWVRQAPGKGLEWVGMIHPSDSETRYNQKFKDRFTISVDKSKNTLYLQMNSLRAEDTAVYYCARGIYFYGTTYFDYWGQGTLVTVSS
VL: DIQMTQSPSSLSASVGDRVTITCRASKTISKYLAWYQQKPGKAPKLLIYSGSTLQSGVPSRFSGSGSGTDFTLTISSLQPEDFATYYCQQHAEYPLTFGQGTKVEIKR
B2: H2C9 variant IgG1 (antibody, V domains shown)
VH: B1 VH with H52A, S54A, D55A, E57N
VL: DIQMTQSPSSLSASVGDRVTITCRASKTISKYLAWYQQKPGKAPKLLIYSGSTLQSGVPSRFSGSGSGTDFTLTISSLQPEDFATYYCQQHNEYPLTFGQGTKVEIK
B3: LysH64Ala variant IgG1 (antibody, V domains shown)
VH: B1 VH with K65A
VL: B2 VL
B4: H2C5 variant IgG1 (antibody, V domains shown)
VH: B1 VH with H52A, S54A, D55N, E57N
VL: B2 VL
B5: H2A3 variant IgG1 (antibody, V domains shown)
VH: B1 VH with H52A, S56A
VL: B2 VL
B6: GluH56Ala variant IgG1 (antibody, V domains shown)
VH: B1 VH with E57A
VL: B2 VL
B7: GluL93Ala variant IgG1 (antibody, V domains shown)
VH: B1 VH
VL: B1 VL with A92N, E93A
B8: LysH62Ala variant IgG1 (antibody, V domains shown)
VH: B1 VH with K63A
VL: B2 VL
B9: ArgH58Ala variant IgG1 (antibody, V domains shown)
VH: B1 VH with R59A
VL: B2 VL
B10: H2A1 variant IgG1 (antibody, V domains shown)
VH: B1 VH with H52A, S54A
VL: B2 VL
B11: SerH55Ala variant IgG1 (antibody, V domains shown)
VH: B1 VH with S56A
VL: B2 VL
B12: SerH53Ala variant IgG1 (antibody, V domains shown)
VH: B1 VH with S54A
VL: B2 VL
B13: AspH65Ala variant IgG1 (antibody, V domains shown)
VH: B1 VH with D66A
VL: B2 VL
B14: H2C10 variant IgG1 (antibody, V domains shown)
VH: B1 VH with H52A, S54A, D55A, E57S
VL: B2 VL
B15: GlyH31Ala variant IgG1 (antibody, V domains shown)
VH: B1 VH with G31A
VL: B2 VL
B16: AspH54Ala variant IgG1 (antibody, V domains shown)
VH: B1 VH with D55A
VL: B2 VL
B17: H2C7 variant IgG1 (antibody, V domains shown)
VH: B1 VH with H52A, S54A, D55A, E57A
VL: B2 VL
B18: HisH52Ala variant IgG1 (antibody, V domains shown)
VH: B1 VH with H52A
VL: B2 VL
B19: H2 variant IgG1 (antibody, V domains shown)
VH: B1 VH with H52A, S54A, S56A
VL: B2 VL
B20: LysH73Arg variant IgG1 (antibody, V domains shown)
VH: B1 VH with K74R
VL: B2 VL
B21: GlnH61Ala variant IgG1 (antibody, V domains shown)
VH: B1 VH with Q62A
VL: B2 VL
B22: AspH54Gln variant IgG1 (antibody, V domains shown)
VH: B1 VH with D55Q
VL: B2 VL
B23: H2A2 variant IgG1 (antibody, V domains shown)
VH: B1 VH with S54A, S56A
VL: B2 VL
B24: ThrH30Ala variant IgG1 (antibody, V domains shown)
VH: B1 VH with T30A
VL: B2 VL
B25: AspH54Asn variant IgG1 (antibody, V domains shown)
VH: B1 VH with D55N
VL: B2 VL

Target: T1, human CD11a (human)
Test: FACScan, Jurkat cells

Row | Var.EC50/HuIgG1 EC50 | Variant EC50/HulgG1 EC50 | Binder
1 | 3.3 | – | B1
2 | 34.3 | – | B2
3 | 2.5 | – | B3
4 | 46 | – | B4
5 | 4.6 | – | B5
6 | 4 | – | B6
7 | 1.7 | – | B7
8 | 1.8 | – | B8
9 | 1.1 | – | B9
10 | 10.8 | – | B10
11 | 1.3 | – | B11
12 | 1.8 | – | B12
13 | 0.8 | – | B13
14 | 14.2 | – | B14
15 | 1.2 | – | B15
16 | 147 | 147 | B16
17 | 2.4 | – | B17
18 | 1.5 | – | B18
19 | 14.1 | – | B19
20 | 4.6 | – | B20
21 | 4.1 | – | B21
22 | – | 20 | B22
23 | 1.9 | – | B23
24 | 1.7 | – | B24
25 | – | 26 | B25

Target: T2, rhesus CD11a (rhesus)
Test: binding to rhesus peripheral blood lymphocytes

Row | Var.EC50/HuIgG1 EC50 | fold improvement in binding over HuIgG1 | Variant EC50/HulgG1 EC50 | fold better binding than HuIgG1 | Binder
26 | 3.3 | – | – | – | B1
27 | 0.22 | – | – | – | B2
28 | 1.2 | – | – | – | B3
29 | 0.11 | – | – | – | B4
30 | 1.3 | – | – | – | B5
31 | 0.3 | 3 fold | – | – | B6
32 | 2.9 | – | – | – | B7
33 | 4.9 | – | – | – | B8
34 | 3.3 | – | – | – | B9
35 | 0.013 | 77 fold | – | – | B10
36 | 1.3 | – | – | – | B11
37 | 0.7 | – | – | – | B12
38 | 1.1 | – | – | – | B13
39 | 0.22 | – | – | – | B14
40 | 2.4 | – | – | – | B15
41 | 0.3 | 3 fold | 0.3 | – | B16
42 | 1.03 | – | – | – | B17
43 | 0.7 | – | – | – | B18
44 | 0.055 | – | – | 18 fold | B19
45 | 5.5 | – | – | – | B20
46 | 5.3 | – | – | – | B21
47 | – | – | 4.4 | – | B22
48 | 1.1 | – | – | – | B23
49 | 1.3 | – | – | – | B24
50 | – | 10 fold | 0.1 | – | B25
